From the supplement of paper PMC12042874 come the findings set out here.

± gives the uncertainty stated by the source.

A short description of this data set: amyloid nucleation score (Sup35N fusion, yeast selection) (log enrichment); library NNK3; higher = more nucleation; inactive = no reads after selection. In a few lines:
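The nucleation score, computed with DiMSum, is the log enrichment of output over input reads, centred on the mode score of non-aggregating sequences. Sequences with under 100 input reads were dropped. Reads were generated by Illumina sequencing of plasmid inserts from psi-negative yeast with Sup35N fused to peptides of 20 random codons, induced with 100 μM copper sulfate for 24 hours and grown 7 days at 30°C on medium lacking adenine and uracil.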

In the case of FIVPWLFICRVVRNCVDSAV, the amyloid nucleation score entry was “inactive”. In the case of YASFTK it was “inactive”. Next, DCERVFSYMRKDQVPPVTLS: “inactive”; KVFNTL: “inactive”. Next, EAVSDLNVGPAVRCGG: “inactive”. Consider FTYVLTLMSFNGGPRGRYGW, for which the amyloid nucleation score was determined as 2.66 ± 0.068. Next, LCRLPLDQTSKPIVTTYAGR: “inactive”.

Turning to TTIFLDS, the amyloid nucleation score result is “inactive”.

Consider ANPLAYLQSMSGTSGNT, for which the amyloid nucleation score result was “inactive”.

Substance KRPWTVFFVFFIGFATLL gave an amyloid nucleation score of 1.15 ± 0.1. In the case of EFPASNLSMLGWN it was “inactive”.

As for RICWSDINWYNRIFLIAELC, the amyloid nucleation score result was “inactive”.

SMSFFMSNGRALLYCQMQFA: the amyloid nucleation score entry is “inactive”.

Regarding NIGYSMLESPFIIIDICNSC, the amyloid nucleation score was determined as 0.619 ± 0.13. Next, VSNMGSMIVVVSVRCYM: 1.45 ± 0.094; YMVVFSVNDRMFVPFY: 0.926 ± 0.15.

With RWDFTSDSISRILTPLNVAK, the amyloid nucleation score is 0.836 ± 0.13. Next, FKVSFIWCCNFKMSCGAYER: 0.446 ± 0.4; FTRNEQP: “inactive”; KCSTMGWRWYMSS: -0.106 ± 0.93.

On to PYFIPYCV, for which the amyloid nucleation score result is “inactive”. Next, GLDYLLHAIYFECRQSGGSR: 0.983 ± 0.17. Turning to FSTVTYQGVTALVNQSSVTT, the amyloid nucleation score result was “inactive”. Turning to FLAVLNLPGCGMDMRNLINL, the amyloid nucleation score entry is “inactive”. Next, CLYRGGFSFYDFSGFCVLSS: “inactive”; RIYDYFLFSCYRV: “inactive”. For NEDLIDVQVVHC, the amyloid nucleation score entry was “inactive”. As for WKGPNRQSMLHGLPLYIYQI, the amyloid nucleation score is -0.305 ± 0.66. In the case of SCARSGTYIAVGIQSCCPRW, the amyloid nucleation score is 1.5 ± 0.14. Next, LVVWRIRWRDKGSL: “inactive”; FTRTREMENCNFLNFYRYMV: “inactive”; LKRSFNDFEFH: “inactive”. Next, NMTVSHWGLTMSRL: 1.26 ± 0.11. Next, MTAVVDRTSNGYSYVTGHLL: “inactive”; CVAKK: “inactive”. Consider TLCST, for which the amyloid nucleation score entry was “inactive”. In the case of YEQHSY it was “inactive”; in that of LGLDTSSSVYCQSCGVRFSV, “inactive”. In the case of TNESIMCGLAT it was “inactive”; in that of GCLYGSSSV, “inactive”; in that of RKLSNIYFVIGDGMWGSHGW, 2.32 ± 0.06. Next, LDAWRWMSLTADYGKSLVTR: “inactive”; WQRWMA: “inactive”. Turning to HRPGFAGGHLWTVFKYVR, the amyloid nucleation score result is “inactive”. Next, SEVFNQLGTARSNMARRACA: “inactive”. As to ALSAYQGVFSYWCRWQWLVA, the amyloid nucleation score entry was “inactive”. Next, VVMCGCSSSRMGLGPVYRTF: “inactive”; VFVPTKYHYMYVLGQWDIFV: “inactive”. NTRTLSMYAVHGNIRVFMAE showed an amyloid nucleation score of 0.917 ± 0.17.

With DNSSLSMK, the amyloid nucleation score result was “inactive”. In the case of DTYMISNVAGNSRYALHGFV it was “inactive”. In the case of YSIISSYTFEFSKFAVLALL it was “inactive”. Next, ANTGFLLSWNGFLLMCLELD: “inactive”; CVPWWLNMPVLDCTLWNSSV: “inactive”; VSRTSVSRRFYCIARMCSPV: “inactive”. On to FGYHYWVSATCMSLALSWLT, for which the amyloid nucleation score entry is “inactive”. In the case of TVQFMRKAQRQFSGA it was “inactive”; in that of WRACHSRSSVVNWISLPDYS, “inactive”. Next, YEFATNAQESS: “inactive”; ITLGACS: “inactive”; RSNTQGLPQYKC: “inactive”. In the case of GFYVCPMGCNEYRVLICSDS it was “inactive”. For HEIQGC, the amyloid nucleation score entry is “inactive”.

For QRTFG, the amyloid nucleation score entry is “inactive”.

For KRFHWFGVGVDAVMRFGV, the amyloid nucleation score result is “inactive”. Next, CVEVY: “inactive”; IEVYYSNRSWCLRQIRGCTG: “inactive”; LCYCLKAVDYRLNFFHKWRH: “inactive”. As for STYLF, the amyloid nucleation score result is “inactive”. Next, SLWHMRVWMLCCKGPKTWRF: “inactive”; ISEVESWPFHCGYGNI: 0.467 ± 0.28.

In the case of TTMWTIKENFTWIVITVDSI, the amyloid nucleation score result was “inactive”. For LNLWD, the amyloid nucleation score entry is “inactive”. In the case of NFVPVYSLSRRAVLGHTGWC it was “inactive”.

Consider MFVSDKEYRCVTSSVTRVCT, for which the amyloid nucleation score result was “inactive”. Next, TYTWKVTNSTISQLFGYLAD: “inactive”; DLTNEMQVCVNV: -0.17 ± 0.88.

Regarding VLQHRLVFDFYKFCMSTMVH, the amyloid nucleation score result was “inactive”.

Regarding VYIRQLRMPAFCLTSGRALD, the amyloid nucleation score result is “inactive”. Substance WIFCLVAIFRTEVDMTNYFT showed an amyloid nucleation score of 0.355 ± 0.69. Next, SFNTLIILSILFVLRQCGTR: “inactive”; DYISPYCS: “inactive”; IYCFRGNHFDCLGAGNMLQV: “inactive”. Regarding GSLMTRRDLRKSPILIYRDG, the amyloid nucleation score was -0.819 ± 0.75. Next, FCLPICFD: “inactive”; LNLDCTS: “inactive”; RMRCAAVRAARAVPATKGEG: “inactive”.

For the substance AYRINRTTDRIIIDSGDVVV, the amyloid nucleation score result is “inactive”.

For the substance ILYGKVTKKRGSKALSVRVM, the amyloid nucleation score result was “inactive”. In the case of KLNFVGLVLRNVGSWEGHGC it was “inactive”; in that of MSVACFSLASVFQWGFFASC, “inactive”; in that of MRHEHAYSIPAHCIYELIMM, “inactive”. With KDCQKNGWLSSTNLELLQCP, the amyloid nucleation score result was “inactive”. Substance LVSMWMQASILLYCNGSNHW had an amyloid nucleation score of 1.61 ± 0.11. In the case of VTRMLFVHCGTSVNVNS it was “inactive”; in that of ESVSNSYVQTKWEYQLC, “inactive”. In the case of FSYCG it was “inactive”; in that of DSRLSAEYMVRMGKVYIDDS, “inactive”; in that of YISLT, “inactive”. In the case of VNCLLSRWCGRHA it was “inactive”; in that of YNFTSFLLIAGNAGSSSSRK, 2.04 ± 0.073.

As for TKYTNPHERSIEMSLFRERQ, the amyloid nucleation score result was “inactive”.

Consider MDFCRRQIMLVVAFSCRLWL, for which the amyloid nucleation score result was “inactive”. In the case of NYLKFCFSCRCIVLSRTVSW it was “inactive”; in that of LNFGEFILMAGDLLTLMCVF, 1.42 ± 0.12. Turning to LYVVVASMVGLDASRP, the amyloid nucleation score came out at 0.266 ± 0.38.

For the substance VFLHVWCGRVGKL, the amyloid nucleation score is -0.089 ± 0.98. In the case of NDIITLSQTLVELSPFGWLS it was “inactive”; in that of ESIVVRF, “inactive”; in that of YGPSLQNSWDPFPRASSPVI, “inactive”. For VRIRGWFAGHGNFWFSL, the amyloid nucleation score result is “inactive”. Take LLFSGHYVGAYLGYVFPICS: the amyloid nucleation score result is “inactive”. Next, NVSFILLYGQCSECTQDA: 2.03 ± 0.067; ASHDKGFYLGSCTYLYGLRL: “inactive”; LKYSDSSDI: 0.235 ± 0.26. In the case of NAFLIGTDILRFMRVLFKQL it was “inactive”.

As for SFLSNCSFPDRSMKAYFIYY, the amyloid nucleation score was 0.939 ± 0.11. The substance CSLYNLDRVTWTG came in with an amyloid nucleation score of 0.219 ± 0.41. Next, MYAVSGVNAQGWWLLADYEL: “inactive”; FFSAFID: “inactive”. Next, YKGKWLFCRQMSCEHFFGFF: “inactive”; VSLMP: “inactive”.

GVLLTYSCSRQLSPDFNCFC displayed an amyloid nucleation score of 1.62 ± 0.073. In the case of TSRNESHTSDYSLLNHNSLL it was “inactive”; in that of PARGLDQEMSSKVFMRGYLA, “inactive”. LNEYNINDFTLFSCTFIGNV yielded an amyloid nucleation score of 2.73 ± 0.081. Next, STDLVIFMSTLPVCSCYCGQ: 1.72 ± 0.08; CRIYCLLPISMIGSCSFIVH: “inactive”; SYTFVCRPTFYVCFCGSMCF: 2.45 ± 0.065.

For LWAWIIYGMWKGSFLCHVFS, the amyloid nucleation score entry is “inactive”. In the case of HPSQIKKVAFHYVRICSKWL it was “inactive”; in that of FRYPLNYN, “inactive”. LGSVVRRDEGIVGESY: the amyloid nucleation score was 0.078 ± 0.6.
